Results: patent US20130102644, “Prophylactic or Ameliorating Agent for Genetic Diseases” (published 2013)

Biological target: hnRNP A1 (Homo sapiens, UniProt P09651 P09651:1-372)
Test: EMSA; 100-400 ng protein; same as mutant at low protein, less efficient at 400 ng; 80 mM KCl, pH 7.9, E. coli tRNA, 20 C
Conditions: tags: N-terminal GST (GST-pcDNA3), expressed in HEK293T; label: 32P
Procedure: Human hnRNP A1 cDNA was amplified by PCR. The obtained amplified fragment was inserted to between the BamHI and NotI sites of GST-pcDNA3 to prepare a GST-hnRNP A1 plasmid. The whole sequence of this plasmid was determined to confirm the plasmid to comprise the fragment of interest. HEK293T cells were transfected with this GST-hnRNP A1 plasmid, and the obtained transformed cells were cultured. A whole cell lysate was prepared from the collected transformed cells according to the method described in the document (Methods Mol Biol (2008) 488, 357-365). The GST-hnRNP A1 protein was purified from the whole cell lysate using an anti-GST affinity resin (manufactured by Sigma-Aldrich Corp.), basically as described in the document (The Journal of Biological Chemistry (2002) 277, 7540-7545) except that the resin was washed twice with buffer solution E (20 mM Hepes-KOH (pH 7.9), 1000 mM KCl, 0.2 mM EDTA, 10% glycerol, and 1 mM DTT) before elution from the column. Subsequently, mutant exon 31 RNA or wild-type exon 31 RNA labeled with ³²P was mixed with the GST-hnRNP A1 protein and incubated at 20° C. for 30 minutes. The obtained complex was subjected to gel mobility shift assay. […]
The gel mobility shift assay was basically conducted according to the method described in the document (Nucleic Acids Research (1995) 23, 3638-3641). […] Bands were analyzed by autoradiography. […]

Sequence of hnRNP A1 (P09651 whole entry, one chain of several): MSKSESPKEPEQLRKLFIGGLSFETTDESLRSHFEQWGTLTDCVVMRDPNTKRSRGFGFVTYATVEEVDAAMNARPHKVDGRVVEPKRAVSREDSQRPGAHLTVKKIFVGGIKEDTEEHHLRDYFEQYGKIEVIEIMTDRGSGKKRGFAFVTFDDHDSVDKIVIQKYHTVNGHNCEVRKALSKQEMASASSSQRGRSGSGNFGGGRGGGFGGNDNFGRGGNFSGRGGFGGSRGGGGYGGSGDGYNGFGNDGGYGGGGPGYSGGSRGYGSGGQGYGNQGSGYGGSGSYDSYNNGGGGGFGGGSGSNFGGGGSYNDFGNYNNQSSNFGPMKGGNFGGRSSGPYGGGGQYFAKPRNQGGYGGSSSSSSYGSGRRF

B1: dystrophin exon 31 RNA wild-type (ssRNA)
RNA: AAAAUCCAAUCUGAUUUGACAAGUCAUGAGAUCAGUUUAGAAGAAAUGAAGAAACAUAAUCAGGGGAAGGAGGCUGCCCAAAGAGUCCUGUCUCAGAUUGAUGUUGCACAG
binding result: binds
